Laboratory results published in the supplement of paper PMC10567573.

B1: ANKRD40 (parent)
chain: VRIQNPSLRENDFIEIELDRQELT

Variants of: B1
Experiment: protein stability index of a GFP-peptide fusion (GPS, HEK-293T) (PSI 1-6); higher = more stable
Settings: c terminus: a fixed tail appended
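Also: lentivirally expressed fusions sorted by FACS into six bins by GFP to DsRed ratio, PSI derived from sequencing read proportions per bin multiplied by bin number.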

Protein stability index of substitutions, site by site:
E15: R 2.13 | Q 2.18 | C 1.87 | W 1.97 | H 2.94 | G 3.02 | Y 2.04 | I 2.45 | N 3.29 | S 2.02 | F 1.82 | T 2.27 | V 1.89 | D 2.95 | A 2.38 | M 1.95 | K 2.47 | L 2.25 | P 3.49
I16: V 3.49 | H 4.59 | K 4.69 | D 5 | W 2.89 | A 4.19 | F 2.83 | C 4.09 | S 4.47 | P 4.67 | M 3.49 | L 2.65 | G 4.55 | T 4.44 | E 4.8 | Y 3.15 | Q 4.68 | N 5.11 | R 4.75
I3: T 3.9 | V 3.06 | R 3.88 | E 4.63 | F 2.44 | S 3.84 | N 4.28 | A 4.17 | G 4.05 | Y 3.11 | K 3.44 | Q 3.71 | C 3.22 | D 4.9 | M 3.61 | P 3.77 | L 2.75 | W 2.4 | H 4.17
R9: I 1.68 | H 1.81 | V 2.03 | G 2.32 | S 2.41 | L 2.48 | F 1.51 | D 2.23 | N 1.93 | M 1.97 | Q 2.16 | K 2.62 | C 2.33 | A 1.92 | P 2.63 | W 2.14 | Y 1.78 | T 2.54 | E 2.74
N5: R 2.29 | T 2.16 | Y 1.36 | C 2.45 | Q 2.07 | E 3.08 | D 2.48 | L 3.56 | S 1.74 | G 1.9 | K 2.74 | M 2.73 | F 2.28 | H 1.73 | A 1.86 | W 2.23 | P 2.08 | I 2.43
N11: W 1.41 | L 1.7 | I 1.94 | H 2.39 | C 1.69 | V 1.97 | Y 1.71 | K 2.94 | P 2.73 | R 2.63 | G 2.32 | Q 2.54 | E 1.79 | S 2.58 | A 2.18 | M 1.99 | F 1.69 | T 2.47 | D 2.08
D12: H 2.11 | Q 2.1 | P 2.58 | G 1.68 | E 2.29 | R 2.97 | T 1.66 | C 2.46 | N 2.64 | I 2.08 | S 1.83 | F 2.14 | Y 1.06 | L 2.01 | V 2.2 | A 1.81 | M 3.11 | W 2.37 | K 2.61
R2: P 4.93 | M 3.05 | Y 1.73 | C 2.93 | H 3.13 | I 2.29 | K 2.98 | E 4.16 | F 1.87 | G 4.28 | A 2.73 | W 1.74 | L 2.24 | T 3.5 | S 3.64 | V 2.46 | D 4.69 | Q 4.3 | N 4.11
P6: E 2.93 | S 2.16 | N 2.67 | L 2.17 | G 2.28 | T 2.02 | M 2.18 | C 2.06 | W 1.77 | Y 1.73 | F 1.66 | D 2.38 | R 2.69 | H 2.65 | K 2.67 | Q 2.6 | V 2.02 | A 2.75 | I 1.52
V1: T 3.96 | F 2.58 | R 3.63 | W 2.99 | G 4.27 | Q 4.27 | L 2.71 | P 4.53 | A 3.91 | M 2.79 | K 3.97 | Y 3.41 | E 4.77 | H 4.04 | N 4.46 | C 3.51 | S 4.3 | D 5.15 | I 2.03
S7: D 2.91 | H 2.13 | M 2.01 | A 2.76 | Y 2.16 | N 2.79 | W 2.2 | V 2.81 | C 2.33 | F 1.45 | I 2.56 | K 2.81 | R 2.39 | T 3.04 | P 3.72 | E 2.8 | Q 2.82 | G 2.26 | L 2.09
L8: Q 3.11 | F 2.27 | D 2.76 | R 2.47 | I 3.35 | M 2.42 | Y 2.15 | T 3.42 | P 3.13 | E 3.34 | K 2.96 | W 1.98 | N 2.43 | S 3.24 | G 2.08 | C 2.36 | V 2.41 | A 2.77 | H 2.93
F13: L 3.42 | T 3.76 | N 4.18 | P 4.53 | C 3.15 | Y 2.42 | H 4.08 | G 4.11 | D 4.61 | I 2.36 | S 4.39 | V 3.41 | Q 4.32 | K 3.72 | R 3.43 | A 3.81 | E 4.6 | M 3.21 | W 2.44
E17: Q 1.96 | F 1.93 | R 2.14 | P 3.44 | C 1.65 | A 2.47 | W 1.85 | I 1.97 | D 2.7 | T 1.86 | S 2.15 | K 2.27 | Y 2.22 | M 1.81 | G 3.22 | V 1.35 | H 2.62 | L 1.98 | N 2.66
Q4: Y 1.98 | R 2.12 | D 2.88 | K 2.09 | F 1.92 | W 1.61 | V 2.01 | P 2.63 | H 2.11 | I 2.24 | A 2.16 | M 2.04 | T 2.27 | C 2.01 | E 2.31 | N 2.46 | S 2.29 | L 1.89 | G 2.36
I14: L 3 | F 2.87 | A 4 | M 3.34 | Q 4.31 | V 3.1 | Y 3.73 | D 5.22 | C 3.43 | W 2.49 | S 4.42 | T 3.88 | P 4.27 | H 4.66 | E 4.92 | G 3.87 | N 4.85 | R 4.34 | K 4.47
E10: P 2.5 | T 2.28 | D 2.31 | N 2.15 | S 2.51 | W 1.91 | M 1.74 | G 1.85 | C 1.73 | I 2 | K 2.08 | R 1.84 | A 2.27 | H 2.38 | Q 2.37 | F 1.92 | L 1.53 | V 2.05 | Y 1.51
L18: A 4.2 | E 5.04 | D 4.8 | N 4.72 | C 3.61 | P 4.35 | M 3.3 | F 2.12 | K 4.62 | I 2.01 | H 4.48 | G 4.38
